Sequences and labels used below:
B1: CPEB3 Ribozyme (parent)
chain: UAACAGGGGGCCACAGCAGAAGCGUUCACGUCGCAGCCCCUGUCAGAUUCUGGUGAAUCUGCGAAUUCUGCUGUAUAUCUC

The variants in this data set derive from B1. Description: self-cleavage, relative activity (ratio to wild type); higher = more cleavage; in vitro, sequencing. An outline of the steps:
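Libraries of CPEB3 self-cleaving ribozyme mutants came from rounds of error-prone PCR and carried barcodes, which DNA sequencing matched to variants. In vitro transcription used T7 RNA polymerase at 37°C for 5 hours, with a further 15 min in DNase I before EDTA stopped the reaction; the ribozymes cleaved during both steps. The RNA was reverse transcribed with template switching and sequenced on Illumina. Relative activity is the cleaved/total read fraction of a variant divided by that of the unmutated ribozyme, averaged over three batches with at least 5 reads.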
In the case of C62U U76A, the self-cleavage turned out to be 0.25. As for C62U U76C, the figure is 0.33. As for G63A C81U, the figure is 1.07; as for A64G A77U, 1.03.

As for A64G A77G, the self-cleavage is 0.84.

For G63C U74C, the self-cleavage was 1.21. As for G61C A65C, the figure is 0.22; as for G61C A65G, 0.39. As for U60G U80C, the figure is 0.63. As for G61U A64U, the figure is 0.23; as for G61A G63A, 0.84. For G63U A64G, the self-cleavage is 0.79. As for G63U A64U, the figure is 0.43; as for U60C U66G, 0.15; as for U60C U66A, 0.33. As for U60C U66C, the figure is 0.29. As for G63U U69A, the figure is 0.57; as for G61U U76A, 0.39.

In the case of G61U U67C, the self-cleavage was 0.21.

For the variant G61U U67G, the self-cleavage turned out to be 0.23. The value for G63A U76A was 0.82; that for G61A C62U was 0.17; that for G61A U67G was 0.25.

Turning to G61A U67C, the self-cleavage was 0.36. Take G61A U67A: the self-cleavage was found to be 0.43.

With C62U C71U, the self-cleavage stood at 0.22. As for C62U C71A, the figure is 0.26; as for C62U C79G, 0.2; as for G61C, 0.34. As for G61U, the figure is 0.6; as for G61A, 0.75; as for G63A A75G, 0.49.

For the variant G63A A75U, the self-cleavage was found to be 0.84. Take U60C U80C: the self-cleavage stood at 0.57. As for U60C U80A, the figure is 0.61.

U60C U80G: the self-cleavage turned out to be 0.44.

On to U60G U69A, for which the self-cleavage was 0.39. As for U60G U69C, the figure is 0.23; as for A64U C79A, 0.36; as for A64U C79U, 0.39. As for U60C U76C, the figure is 0.51; as for U60C U76A, 0.58. As for U60C U76G, the figure is 0.51; as for G61A A77U, 0.98; as for G61A A77G, 0.8.

Consider G63C C79A, for which the self-cleavage was 1.09. Turning to A64C U80C, the self-cleavage came to 0.38. As for G63C U72C, the figure is 1.14; as for G63C U72A, 0.4. As for U60C A77U, the figure is 0.55; as for U60C A77G, 0.51. As for C62U A75G, the figure is 0.22; as for C62U A75C, 0.44; as for C62U U78C, 0.2.

Regarding C62U U78A, the self-cleavage stood at 0.28. For the variant G63U U67C, the self-cleavage is 0.29. As for G63U U67A, the figure is 0.58.

As for G61C C62U, the self-cleavage was 0.22. As for G63A G73A, the figure is 1.34.

In the case of G61C U66A, the self-cleavage was determined as 0.23. The value for G61C U66C was 0.54; that for G61A G70U was 0.12. The value for C62G C79A was 0.24. As for A64G U76A, the figure is 0.95; as for A64G U76C, 0.94. C62U C68U: the self-cleavage was found to be 0.21. As for C62A G63A, the figure is 0.25.

For the variant C62G A64C, the self-cleavage came out at 0.19. In the case of C62G A64U, the self-cleavage worked out at 0.32. The value for C62G A64G was 0.22. The value for U60G C62A was 0.34; that for A64C U74C was 0.44. The value for U60C A65U was 0.27; that for U60C A65G was 0.28; that for U60C A65C was 0.17. With A64G C81G, the self-cleavage worked out at 1.03. The value for A64G C81U was 0.91; that for A64G C81A was 1.02. For the variant U60G A64U, the self-cleavage came to 0.21. As to U60G A64G, the self-cleavage was found to be 0.42.

Consider U60C G70A, for which the self-cleavage turned out to be 0.48.

Turning to U60C G70C, the self-cleavage is 0.27. The value for U60C G70U was 0.44; that for G61A U80A was 0.91; that for G61A U80C was 0.9. On to G61A U80G, for which the self-cleavage amounted to 1. The value for U60C U69G was 0.39; that for U60C U69C was 0.37; that for U60C U69A was 0.35.

Regarding A64C A65G, the self-cleavage came to 0.16. Turning to A64C A65U, the self-cleavage amounted to 0.09.

For the variant A64C A77G, the self-cleavage worked out at 0.17. As for A64C A77U, the figure is 0.25; as for U60C C71U, 0.3; as for U60C C71A, 0.25.

As to U60C C62U, the self-cleavage amounted to 0.33. For the variant U60C C62A, the self-cleavage turned out to be 0.19. As for G61C G63U, the figure is 0.35; as for U60G C71U, 0.2; as for A64G G70U, 0.29. Consider A64G G70C, for which the self-cleavage came out at 0.21. Take A64G G70A: the self-cleavage is 0.37. As for U60C U72A, the figure is 0.37. For U60C U72G, the self-cleavage amounted to 0.39. As for U60C U72C, the figure is 0.53. The value for U60G G70A was 0.21. As for A64G U72C, the figure is 0.91; as for A64G U72A, 0.67; as for A64G U72G, 0.87. Consider C62U A65G, for which the self-cleavage was 0.27. As for C62U A65U, the figure is 0.14; as for U60C G73A, 1.09; as for U60C G73C, 0.9. The value for U60C C68A was 0.32; that for U60C C68G was 0.31; that for C62U U67C was 0.31. The value for C62U U67A was 0.29; that for G63C U67C was 0.31. In the case of G63C U67A, the self-cleavage was found to be 0.25. With C62A U67A, the self-cleavage is 0.32.

Regarding C62A A75G, the self-cleavage was found to be 0.12. Turning to C62G A77U, the self-cleavage was found to be 0.19.

Consider A64G G73A, for which the self-cleavage is 1.24. The value for A64G G73U was 1.35; that for G61A U72A was 0.3; that for G61A U72C was 0.73. The value for U60G U78A was 0.36.

Consider U60G U78C, for which the self-cleavage turned out to be 0.17. As for G63U U66C, the figure is 0.42; as for C62A G73A, 0.24; as for C62U, 0.2. As for C62G, the figure is 0.3; as for C62A, 0.31. As for U60G U67A, the figure is 0.26; as for U60G U67C, 0.13. For the variant G61U U72G, the self-cleavage is 0.53. As for G61U U72C, the figure is 0.72; as for U60G U66C, 0.15; as for U60G U66G, 0.24. Take A64G U69C: the self-cleavage stood at 0.41. The value for A64G U69G was 0.44. As for A64G U69A, the figure is 0.38; as for G61C U80C, 0.5; as for G61A U74C, 1.12. Turning to U60G U74A, the self-cleavage turned out to be 0.82. In the case of U60G U74C, the self-cleavage was found to be 0.88.

Consider A64G U67G, for which the self-cleavage was 0.44.

With A64G U67A, the self-cleavage amounted to 0.38.

Turning to A64G U67C, the self-cleavage was 0.25.

In the case of C62U U69C, the self-cleavage came to 0.32. The value for C62U U69A was 0.38; that for G61C A64U was 0.32. As for G61C A64G, the figure is 0.19; as for A64U C68A, 0.37; as for A64G U78A, 1.07. As to A64G U78G, the self-cleavage stood at 1.11. Turning to A64G U78C, the self-cleavage was 0.77. The value for C62G U76C was 0.29; that for G61A G73A was 1.21; that for U60G A77U was 0.38. The value for U60G A77G was 0.47.

As for A64C C81U, the self-cleavage was 0.43. For C62G U80A, the self-cleavage was determined as 0.25. The value for C62A A65U was 0.24. On to C62A A65G, for which the self-cleavage amounted to 0.36. Turning to G61A C79A, the self-cleavage turned out to be 1.16.

As to A64G C68A, the self-cleavage is 0.2.

The values are drawn from the RNAGym collection of RNA variant scans (doi:10.1093/nar/gkz1192).
